The numbers were not newly measured in paper PMC5951583, which cites them from elsewhere.

A word on the Kd: it is the equilibrium constant for the complex coming apart.

The target of series [1] is Synaptotagmin-2 (Rattus norvegicus) (UniProt P29101).
The target in series [2] is Syt-II (Rattus norvegicus) (UniProt P29101).
The target in series [3] is Synaptotagmin-2 (Rattus norvegicus) (UniProt P29101). Nature of the series: SPR.
In series [4] the target is Syt-II luminal domain (Rattus norvegicus) (UniProt P29101). Kind of series: ITC. Background: Isothermal titration calorimetry measures the heat released or taken up as one component is titrated into another.
Series [5] has as its target Synaptotagmin-2 (Rattus norvegicus) (UniProt P29101). This is another data set of the same source.
For series [6] the target is unchanged. Kind of series: ITC.

Where two headings read alike, the source gives them in different places.

For the substance BoNT/B (from UniProt P10844), the Kd in series [1] was 0.23 nM; in series [2], 7 nM; in series [3], 0.6 nM.
Turning to “BoNT/B HC (HCB) HC (from UniProt P10844)”, the Kd in series [4] is 34 nM.
Take BoNT/B HC HC (from UniProt P10844): the Kd in series [5] was 7 nM; in series [6], 34 nM.
